Tests used:
[1] = tested on: patients with genotype-confirmed hoFH; conditions: ezetimibe 10 mg/day added to maximal dose of statins; cited from earlier work
[2] = tested on: patients with primary hypercholesterolemia (heFH and non-FH) who are intolerant to statins; test: Example 3: safety (TEAEs, skeletal muscle-related events); conditions: in vivo
[3] = tested on: healthy subjects and hypercholesterolemic patients (familial or non-familial); test: Phase 1 studies of mAb316P (safety, tolerability, PK/PD; IV or SC); type: in vivo, human
Protocol: Two studies were single dose administration (one study with IV administration of doses from 0.3 mg to 12 mg/kg and another study with SC administration of doses from 50 mg to 250 mg) conducted in healthy subjects with LDL-C>100 mg/dL for whom statin therapy was not indicated. The third study was conducted in hypercholesterolemic patients (familial or non-familial) with single to multiple SC administration of 50 mg, 100 mg, 150 mg and 200 mg either as add-on to stable doses of atorvastatin from 10 mg to 40 mg/day or as monotherapy.
No pattern of adverse events (AEs) related to the drug was identified. […] The magnitude and duration of these reductions were positively related to the dose administered. It should also be noted that in the third study, results were similar in the familial and non-familial hypercholesterolemic patients.

[4] = tested on: patient population with non-familial hypercholesterolemia or with heterozygous familial hypercholesterolemia; test: Phase 2 studies / earlier clinical data of mAb316P; type: in vivo, human
From the text: The efficacy on LDL-C lowering was associated with consistent results in total-C, ApoB, non-HDL-C and ApoB/ApoA-1 ratio and a positive trend for HDL-C, TG and Lp(a).

[5] = clinical data available at commencement of Example 3 study

| Molecule | total reduction of LDL-C levels [1] [%] | patients positively adjudicated for non-fatal MI [2] | reductions from baseline in LDL-C ([3]; Phase 1 studies, up to (maximum)) | tolerability ([3]; healthy subjects and patients, all doses) | LDL-C lowering effect [4, 5] | tolerability [4, 5] | serum total concentrations of mAb316P during the 8-week follow-up period ([4]; preliminary PK data from Phase 2 studies) |
| --- | --- | --- | --- | --- | --- | --- | --- |
| O=C1[C@H](CC[C@H](O)c2ccc(F)cc2)[C@@H](c2ccc(O)cc2)N1c1ccc(F)cc1 [ezetimibe, reference compound] | 27 | – | – | – | – | – | – |
| mAb316P: human anti-PCSK9 antibody; heavy chain SEQ ID NO:5, light chain SEQ ID NO:9; HCVR SEQ ID NO:1, LCVR SEQ ID NO:6 | – | one (0.8%) patient (%) | up to 60% | generally well tolerated at all doses | significant LDL-C lowering effect | generally well-tolerated | still detectable, but at very low levels |

Reference: patent US20150140002A1, “USE OF A PCSK9 INHIBITOR TO TREAT […]” (Sanofi, priority 2013, published 2015)
